Reference: patent publication US20190031713A1 (Regeneron, published 2019)
Residue numbers refer to the chain shown, from its start.

Target: T1, Protein A (on chromatography support) (UniProt P38507 37-327)
T1 construct: Commercial recombinant Protein A resins; also called rProtein A FF; NAb Protein A Plus
Assay: rProtein A FF column, pH gradient, 20 mM sodium citrate, 1 M NaCl
Procedure: The solvent system consisted of solvent A (PBS, 1×), solvent B (20 mM sodium citrate and 1 M NaCl, pH 5.5) and solvent C (20 mM sodium citrate and 1M NaCl, pH 2.5). The elution started with an isocratic elution with 100% A in the first 20 min followed by a quick switch to 100% B at 20 min. […] A linear gradient from 33.5% C to 100% C was followed for 30 min. The flow rate was kept 250 microliters/min and the chromatograms were detected at 280 nm by a UV detector.

B1: differentially modified heterodimeric human IgG2 Fc/ΔAdpFc (other)
chain 1: ERKCCVECPPCPAPPVAGPSVFLFPPKPKDTLMISRTPEVTCVVVDVSHEDPEVQFNWYVDGVEVHNAKTKPREEQFNSTFRVVSVLTVVHQDWLNGKEYKCKVSNKGLPAPIEKTISKTKGQPREPQVYTLPPSREEMTKNQVSLTCLVKGFYPSDIAVEWESNGQPENNYKTTPPMLDSDGSFFLYSKLTVDKSRWQQGNVFSCSVMHEALHNHYTQKSLSLSPGK
chain 2: B1 chain 1 with H216R, Y217F
elution pH from Protein A column: 4.5 pH

B2: unmodified human homodimeric IgG2 Fc/Fc (other, UniProt P01859-1 99-326, looked up)
chain: B1 chain 1 with A159S
notes: domain: Fc; also called hIgG2 Fc/Fc; hIgG2
elution pH from Protein A column: 3.5 pH
